Assay results from paper PMC6773851, “Identification of protein-protein and ribonucleoprotein complexes containing Hfq” (Scientific Reports, 2019).

Columns and labels:
[1] = tested on: HfqH6 (Ec-HfqHis6) (Escherichia coli); assay: MST; details: Hill coefficient 4.0; concentration calculated with 1 kb average length; MST: 50 mM Tris-HCl pH 7.6, 50 mM NH4Cl, 1 mM EDTA, 0.1% Triton X100, 5% glycerol; room temperature; 100 nM labelled HfqH6. Total E. coli RNA (EC50 3.2e-7 M …)
Ec-HfqHis6 (purified) [2] = molecular target: T1, Ec-HfqHis6 (purified) (E. coli, UniProt P0A6X3 1-102); assay: MST; as the MST without RNA, but in the presence of E. coli total RNA; apparent affinity; details: both partners purified
T1 construct: In MST labelled with a fluorescent dye (Protein Labeling Kit RED-NHS); also called HfqH6; purified Hfq
T1 sequence (P0A6X3 whole entry): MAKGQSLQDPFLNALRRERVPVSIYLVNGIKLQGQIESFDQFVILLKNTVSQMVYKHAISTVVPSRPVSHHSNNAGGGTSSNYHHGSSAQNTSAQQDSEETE

Ec-HfqHis6 (purified) [3] = molecular target: T1, Ec-HfqHis6 (purified); assay: MST; one partner labelled (RED-NHS) and constant (HfqH6 100 nM), the other titrated; standard buffer (50 mM Tris-HCl pH7.6, 50 mM NH4Cl, 1 mM EDTA, 0.1% Triton X100, 5% glycerol); room temperature; Hill model; without RNA; details: both partners purified

## poly(A)
[1]
  K half: 600 nM

B1: Poly(A)polymerase, PAP (purified) (natural protein, E. coli, UniProt P0ABF1 11-465, looked up)
chain: KVLSREESEAEQAVARPQVTVIPREQHAISRKDISENALKVMYRLNKAGYEAWLVGGGVRDLLLGKKPKDFDVTTNATPEQVRKLFRNCRLVGRRFRLAHVMFGPEIIEVATFRGHHEGNVSDRTTSQRGQNGMLLRDNIFGSIEEDAQRRDFTINSLYYSVADFTVRDYVGGMKDLKDGVIRLIGNPETRYREDPVRMLRAVRFAAKLGMRISPETAEPIPRLATLLNDIPPARLFEESLKLLQAGYGYETYKLLCEYHLFQPLFPTITRYFTENGDSPMERIIEQVLKNTDTRIHNDMRVNPAFLFAAMFWYPLLETAQKIAQESGLTYHDAFALAMNDVLDEACRSLAIPKRLTTLTRDIWQLQLRMSRRQGKRAWKLLEHPKFRAAYDLLALRAEVERNAELQRLVKWWGEFQVSAPPDQKGMLNELDEEPSPRRRTRRPRKRAPRREGTA
notes: Poly(A) polymerase I, E. coli
Ec-HfqHis6 (purified) [2]
  fold decrease of the apparent affinity in the presence of total RNA: ~10 fold
Ec-HfqHis6 (purified) [3]
  EC50: < 10 µM
